In patent publication US11208638 one finds activity and Kd data, which are given here for five substances.

pKd: −log10 of the molar value.

Data set [1] concerns split-Cas9 (alpha-helical lobe + nuclease lobe) (Streptococcus pyogenes). Put plainly: cell_activity. As to conditions: HEK293T nucleofected RNP, nocodazole synchronized; 0.6% unsynchronized; WT 34% and 22%.
Data set [2] concerns the target Cas9 nuclease lobe (Streptococcus pyogenes) (UniProt Q99ZW2). Put plainly: filter.
Data set [3] deals with Cas9 alpha-helical lobe (Streptococcus pyogenes) (UniProt Q99ZW2). Put plainly: filter. To be noted: 5 mM MgCl2, RT.
The target of data set [4] is dCas9 D10A,H840A (Streptococcus pyogenes) (UniProt Q99ZW2). Put plainly: EMSA. As to conditions: 5 mM MgCl2, heparin, RT; PAM NGG. A general note: Mobility shift assays separate free from complexed probe on a gel.
Data set [5] has as its system split-dCas9 (alpha-helical lobe + dNuclease lobe) D10A,H840A (Streptococcus pyogenes). Put plainly: EMSA. As to conditions: apparent; complex dissociation contributes; 5 mM MgCl2, heparin; PAM NGG.

Consider EMX1 sgRNA ; EMX1 locus target, for which, in data set [1], the activity is less than 2 % indels.

Turning to delta-hairpins1-2 sgRNA, in data set [2] (5 mM MgCl2, RT), the pKd (usually −log10 of the Kd, conventionally taken in molar units) was less than 7.00.

As to delta-spacer-nexus sgRNA, the pKd in data set [3] is less than 7.00.

For full-length sgRNA, the negative-log Kd (pKd) in data set [2] (Example 1, p568 gives range 0.2-0.8 nM) is 9.30.

Turning to “full-length sgRNA ; target dsDNA (55 bp, with PAM)”, the results for the pKd in data set [4] and in data set [5] were 9.70 and 6.15, respectively.
